Measured values taken from article PMC13397619.

B1: NLV3 TCR beta chain (CDR3β only) (parent)
chain: ASSPTGGSPSPLH

Variants of: B1
Assay: T-Switch: Jurkat TCRβ−/− cells expressing a CDR3 saturation-mutagenesis library, stained with two peptide-HLA-A*02:01 tetramers (original and novel peptide) plus anti-CD3, FACS-sorted into four gates, gDNA sequenced
Details: tetramers 1 µg/mL, 30 min on ice, SP, DP and SW gates expanded about 10 days between rounds ('two to three rounds of selection' in the Methods), unresolved parent, parent is a CDR3 fragment, scale: fold enrichment, numbering: sequential-on-construct, sequence starts at 1
[1] = with both tetramers (double-negative gate, binds neither): HLA-A*02:01 with … and with …, gate DN: OPPOSITE: higher = more of the variant in the gate that binds neither peptide = LESS binding (or no expression; inferred). Fold enrichment of the CDR3 variant in one FACS gate of a two-tetram
[2] = with both tetramers (double-positive gate): HLA-A*02:01 with … and with …, gate DP: higher = more of the variant in the gate that binds both peptides. Fold enrichment of the CDR3 variant in one FACS gate of a two-tetramer stain. SP/DP/SW gates were expanded and re-sorted bef

Variant: […] (CDR3 as printed); P11T derived by comparing it with the table's wild-type CDR3 ASSPTGGSPSPLH
- enrichment [1]: 1.19
- enrichment [2]: 0

Variant: […] (CDR3 as printed); S3D derived by comparing it with the table's wild-type CDR3 ASSPTGGSPSPLH
- enrichment [1]: 0.675
- enrichment [2]: 0

Variant: […] (CDR3 as printed); P4L derived by comparing it with the table's wild-type CDR3 ASSPTGGSPSPLH
- enrichment [1]: 0.459
- enrichment [2]: 0

Variant: […] (CDR3 as printed); P11D derived by comparing it with the table's wild-type CDR3 ASSPTGGSPSPLH
- enrichment [1]: 0.46
- enrichment [2]: 0

Variant: […] (CDR3 as printed); S3R derived by comparing it with the table's wild-type CDR3 ASSPTGGSPSPLH
- enrichment [1]: 0.964
- enrichment [2]: 0

Variant: […] (CDR3 as printed); G6Q derived by comparing it with the table's wild-type CDR3 ASSPTGGSPSPLH
- enrichment [1]: 1.2
- enrichment [2]: 0

Variant: […] (CDR3 as printed); H13C derived by comparing it with the table's wild-type CDR3 ASSPTGGSPSPLH
- enrichment [1]: 0.646
- enrichment [2]: 0

Variant: […] (CDR3 as printed); S8L derived by comparing it with the table's wild-type CDR3 ASSPTGGSPSPLH
- enrichment [1]: 1.58
- enrichment [2]: 0

Variant: […] (CDR3 as printed); S3C derived by comparing it with the table's wild-type CDR3 ASSPTGGSPSPLH
- enrichment [1]: 0.656
- enrichment [2]: 0

Variant: […] (CDR3 as printed); G6F derived by comparing it with the table's wild-type CDR3 ASSPTGGSPSPLH
- enrichment [1]: 1.27
- enrichment [2]: 0

Variant: […] (CDR3 as printed); H13I derived by comparing it with the table's wild-type CDR3 ASSPTGGSPSPLH
- enrichment [1]: 0.602
- enrichment [2]: 0

Variant: […] (CDR3 as printed); S3T derived by comparing it with the table's wild-type CDR3 ASSPTGGSPSPLH
- enrichment [1]: 0.779
- enrichment [2]: 0

Variant: […] (CDR3 as printed); S2E derived by comparing it with the table's wild-type CDR3 ASSPTGGSPSPLH
- enrichment [1]: 0.993
- enrichment [2]: 0

Variant: […] (CDR3 as printed); L12M derived by comparing it with the table's wild-type CDR3 ASSPTGGSPSPLH
- enrichment [1]: 0.583
- enrichment [2]: 0

Variant: […] (CDR3 as printed); A1H derived by comparing it with the table's wild-type CDR3 ASSPTGGSPSPLH
- enrichment [1]: 0.916
- enrichment [2]: 0

Variant: […] (CDR3 as printed); G6C derived by comparing it with the table's wild-type CDR3 ASSPTGGSPSPLH
- enrichment [1]: 0.841
- enrichment [2]: 0

Variant: […] (CDR3 as printed); G7C derived by comparing it with the table's wild-type CDR3 ASSPTGGSPSPLH
- enrichment [1]: 0.947
- enrichment [2]: 0

Variant: […] (CDR3 as printed); P9S derived by comparing it with the table's wild-type CDR3 ASSPTGGSPSPLH
- enrichment [1]: 0.771
- enrichment [2]: 0

Variant: […] (CDR3 as printed); P11L derived by comparing it with the table's wild-type CDR3 ASSPTGGSPSPLH
- enrichment [1]: 0.702
- enrichment [2]: 0

Variant: […] (CDR3 as printed); H13D derived by comparing it with the table's wild-type CDR3 ASSPTGGSPSPLH
- enrichment [1]: 0.745
- enrichment [2]: 0

Variant: […] (CDR3 as printed); L12D derived by comparing it with the table's wild-type CDR3 ASSPTGGSPSPLH
- enrichment [1]: 0.327
- enrichment [2]: 0

Variant: […] (CDR3 as printed); H13R derived by comparing it with the table's wild-type CDR3 ASSPTGGSPSPLH
- enrichment [1]: 0.602
- enrichment [2]: 0

Variant: […] (CDR3 as printed); A1T derived by comparing it with the table's wild-type CDR3 ASSPTGGSPSPLH
- enrichment [1]: 0.774
- enrichment [2]: 0

Variant: […] (CDR3 as printed); S2F derived by comparing it with the table's wild-type CDR3 ASSPTGGSPSPLH
- enrichment [1]: 0.437
- enrichment [2]: 0

Variant: […] (CDR3 as printed); T5D derived by comparing it with the table's wild-type CDR3 ASSPTGGSPSPLH
- enrichment [1]: 1.06
- enrichment [2]: 0

Variant: […] (CDR3 as printed); L12E derived by comparing it with the table's wild-type CDR3 ASSPTGGSPSPLH
- enrichment [1]: 1.1
- enrichment [2]: 0

Variant: […] (CDR3 as printed); S10W derived by comparing it with the table's wild-type CDR3 ASSPTGGSPSPLH
- enrichment [1]: 1.12
- enrichment [2]: 0

Variant: […] (CDR3 as printed); P9A derived by comparing it with the table's wild-type CDR3 ASSPTGGSPSPLH
- enrichment [1]: 0.394
- enrichment [2]: 114

Variant: […] (CDR3 as printed); H13W derived by comparing it with the table's wild-type CDR3 ASSPTGGSPSPLH
- enrichment [1]: 0.345
- enrichment [2]: 0

Variant: […] (CDR3 as printed); P11F derived by comparing it with the table's wild-type CDR3 ASSPTGGSPSPLH
- enrichment [1]: 0.728
- enrichment [2]: 0

Variant: […] (CDR3 as printed); P11A derived by comparing it with the table's wild-type CDR3 ASSPTGGSPSPLH
- enrichment [1]: 0.423
- enrichment [2]: 0

Variant: […] (CDR3 as printed); P9W derived by comparing it with the table's wild-type CDR3 ASSPTGGSPSPLH
- enrichment [1]: 1.05
- enrichment [2]: 0

Variant: […] (CDR3 as printed); S10C derived by comparing it with the table's wild-type CDR3 ASSPTGGSPSPLH
- enrichment [1]: 0.577
- enrichment [2]: 0

Variant: […] (CDR3 as printed); P4E derived by comparing it with the table's wild-type CDR3 ASSPTGGSPSPLH
- enrichment [1]: 0.97
- enrichment [2]: 0

Variant: […] (CDR3 as printed); S2M derived by comparing it with the table's wild-type CDR3 ASSPTGGSPSPLH
- enrichment [1]: 0.757
- enrichment [2]: 0

Variant: […] (CDR3 as printed); S10V derived by comparing it with the table's wild-type CDR3 ASSPTGGSPSPLH
- enrichment [1]: 0.96
- enrichment [2]: 0

Variant: […] (CDR3 as printed); S3Y derived by comparing it with the table's wild-type CDR3 ASSPTGGSPSPLH
- enrichment [1]: 0.895
- enrichment [2]: 0

Variant: […] (CDR3 as printed); A1N derived by comparing it with the table's wild-type CDR3 ASSPTGGSPSPLH
- enrichment [1]: 1.07
- enrichment [2]: 0

Variant: […] (CDR3 as printed); L12P derived by comparing it with the table's wild-type CDR3 ASSPTGGSPSPLH
- enrichment [1]: 1.2
- enrichment [2]: 0

Variant: […] (CDR3 as printed); P4A derived by comparing it with the table's wild-type CDR3 ASSPTGGSPSPLH
- enrichment [1]: 0.738
- enrichment [2]: 0

Variant: […] (CDR3 as printed); L12V derived by comparing it with the table's wild-type CDR3 ASSPTGGSPSPLH
- enrichment [1]: 0.702
- enrichment [2]: 0

Variant: […] (CDR3 as printed); G6D derived by comparing it with the table's wild-type CDR3 ASSPTGGSPSPLH
- enrichment [1]: 0.99
- enrichment [2]: 0

Variant: […] (CDR3 as printed); P9D derived by comparing it with the table's wild-type CDR3 ASSPTGGSPSPLH
- enrichment [1]: 0.994
- enrichment [2]: 0

Variant: […] (CDR3 as printed); P9H derived by comparing it with the table's wild-type CDR3 ASSPTGGSPSPLH
- enrichment [1]: 0.681
- enrichment [2]: 0

Variant: […] (CDR3 as printed); H13Y derived by comparing it with the table's wild-type CDR3 ASSPTGGSPSPLH
- enrichment [1]: 0.87
- enrichment [2]: 0

Variant: […] (CDR3 as printed); P4H derived by comparing it with the table's wild-type CDR3 ASSPTGGSPSPLH
- enrichment [1]: 0.553
- enrichment [2]: 0

Variant: […] (CDR3 as printed); G6T derived by comparing it with the table's wild-type CDR3 ASSPTGGSPSPLH
- enrichment [1]: 1.01
- enrichment [2]: 0

Variant: […] (CDR3 as printed); P11K derived by comparing it with the table's wild-type CDR3 ASSPTGGSPSPLH
- enrichment [1]: 0.634
- enrichment [2]: 0

Variant: […] (CDR3 as printed); S10D derived by comparing it with the table's wild-type CDR3 ASSPTGGSPSPLH
- enrichment [1]: 0.754
- enrichment [2]: 0

Variant: […] (CDR3 as printed); L12K derived by comparing it with the table's wild-type CDR3 ASSPTGGSPSPLH
- enrichment [1]: 0.756
- enrichment [2]: 0

Variant: […] (CDR3 as printed); S2Q derived by comparing it with the table's wild-type CDR3 ASSPTGGSPSPLH
- enrichment [1]: 0.653
- enrichment [2]: 0

Variant: […] (CDR3 as printed); G7F derived by comparing it with the table's wild-type CDR3 ASSPTGGSPSPLH
- enrichment [1]: 1.02
- enrichment [2]: 0

Variant: […] (CDR3 as printed); G7V derived by comparing it with the table's wild-type CDR3 ASSPTGGSPSPLH
- enrichment [1]: 1.02
- enrichment [2]: 0

Variant: […] (CDR3 as printed); S8V derived by comparing it with the table's wild-type CDR3 ASSPTGGSPSPLH
- enrichment [1]: 0.756
- enrichment [2]: 0

Variant: […] (CDR3 as printed); P9Y derived by comparing it with the table's wild-type CDR3 ASSPTGGSPSPLH
- enrichment [1]: 0.562
- enrichment [2]: 0

Variant: […] (CDR3 as printed); A1V derived by comparing it with the table's wild-type CDR3 ASSPTGGSPSPLH
- enrichment [1]: 0.797
- enrichment [2]: 0

Variant: […] (CDR3 as printed); G6L derived by comparing it with the table's wild-type CDR3 ASSPTGGSPSPLH
- enrichment [1]: 0.967
- enrichment [2]: 0
